# Laboratory results taken from patent US20190030149.
# T1: peptide CALLPAVPSL (SEQ ID NO: 16), Example 3
# T1 chain: CALLPAVPSL
# T2: peptide CSLGEQQYSV (SEQ ID NO: 17), Example 5
# T2 chain: CSLGEQQYSV
# T3: peptide CRVPGVAPTL (SEQ ID NO: 18), Example 4
# T3 chain: CRVPGVAPTL
# B1: Endoplasmic reticulum aminopeptidase 1 (protein)
# chain: MVFLPLKWSLATMSFLLSSLLALLTVSTPSWCQSTEASPKRSDGTPFPWNKIRLPEYVIPVHYDLLIHANLTTLTFWGTTKVEITASQPTSTIILHSHHLQISRATLRKGAGERLSEEPLQVLEHPRQEQIALLAPEPLLVGLPYTVVIHYAGNLSETFHGFYKSTYRTKEGELRILASTQFEPTAARMAFPCFDEPAFKASFSIKIRREPRHLAISNMPLVKSVTVAEGLIEDHFDVTVKMSTYLVAFIISDFESVSKITKSGVKVSVYAVPDKINQADYALDAAVTLLEFYEDYFSIPYPLPKQDLAAIPDFQSGAMENWGLTTYRESALLFDAEKSSASSKLGITMTVAHELAHQWFGNLVTMEWWNDLWLNEGFAKFMEFVSVSVTHPELKVGDYFFGKCFDAMEVDALNSSHPVSTPVENPAQIREMFDDVSYDKGACILNMLREYLSADAFKSGIVQYLQKHSYKNTKNEDLWDSMASICPTDGVKGMDGFCSRSQHSSSSSHWHQEGVDVKTMMNTWTLQKGFPLITITVRGRNVHMKQEHYMKGSDGAPDTGYLWHVPLTFITSKSDMVHRFLLKTKTDVLILPEEVEWIKFNVGMNGYYIVHYEDDGWDSLTGLLKGTHTAVSSNDRASLINNAFQLVSIGKLSIEKALDLSLYLKHETEIMPVFQGLNELIPMYKLMEKRDMNEVETQFKAFLIRLLRDLIDKQTWTDEGSVSERMLRSQLLLLACVHNYQPCVQRAEGYFRKWKESNGNLSLPVDVTLAVFAVGAQSTEGWDFLYSKYQFSLSSTEKSQIEFALCRTQNKEKLQWLLDESFKGDKIKTQEFPQILTLIGRNPVGYPLAWQFLRKNWNKLVQKFELGSSSIAHMVMGTTNQFSTRTRLEEVKGFFSSLKENGSQLRCVQQTIETIEENIGWMDKNFDKIRVWLQSEKLERM
# How the values were obtained:
# [1] = target: T1, peptide CALLPAVPSL (SEQ ID NO: 16), …
# [2] = target: T2, peptide CSLGEQQYSV (SEQ ID NO: 17), …
# [3] = target: T3, peptide CRVPGVAPTL (SEQ ID NO: 18), …
protein,measurement,setting,value
B1,"formation rate (%) of the peptide obtained by trimming (SEQ ID NO: 5), 1 hr later",[1],65.5%
same,"formation rate (%) of the peptide obtained by trimming (SEQ ID NO: 5), 2 hr later",[1],50.6%
same,"formation rate (%) of the peptide obtained by trimming (SEQ ID NO: 5), 4 hr later",[1],13.5%
same,"formation rate (%) of the peptide obtained by trimming (SEQ ID NO: 5), 8 hr later",[1],0%
same,"formation rate (%) of the peptide obtained by trimming (SEQ ID NO: 6), 1 hr later",[2],77.6%
same,"formation rate (%) of the peptide obtained by trimming (SEQ ID NO: 6), 2 hr later",[2],72.8%
same,"formation rate (%) of the peptide obtained by trimming (SEQ ID NO: 6), 4 hr later",[2],46%
same,"formation rate (%) of the peptide obtained by trimming (SEQ ID NO: 6), 8 hr later",[2],7.9%
same,"formation rate (%) of the peptide obtained by trimming (SEQ ID NO: 7), 1 hr later",[3],59.1%
same,"formation rate (%) of the peptide obtained by trimming (SEQ ID NO: 7), 2 hr later",[3],57.5%
same,"formation rate (%) of the peptide obtained by trimming (SEQ ID NO: 7), 4 hr later",[3],30.1%
same,"formation rate (%) of the peptide obtained by trimming (SEQ ID NO: 7), 8 hr later",[3],7.8%
